Source: US20210032312A1 (Janssen / Centocor, published 2021)

What was measured:
[1] = molecular target: T1, human CD8 alpha (CD8A) on primary human CD8+ T cells (human, UniProt P01732 22-235); experiment: flow cytometry, human CD8+ T cells
T1 construct: whole, on cells; also called hCD8A
Experimental: (§1) Binding of the 190 ELISA hits to human and cynomologous monkey primary CD8 T cells was assessed by flow cytometry. The FN3 domain molecules were diluted to 2 μM and 0.2 μM in PBS and incubated with human or cynomologous monkey CD8+ T cells in 96-well format. After 1 hour at 4 C, the cells were washed once with PBS and then resuspended with an anti-FN3 domain antibody (PAB25) solution. Following this incubation, the cells were washed twice with PBS and a PE conjugated secondary antibody and a viability dye were added. Finally, cells were washed and resuspended in PBS for flow cytometric analysis using a BD Canto Instrument. Cells were gating on live cells and median fluorescence intensity of the bound Centyrins (PE channel) was calculated using Cytobank software.

human CD8A-Fc (in house) = molecular target: T2, human CD8A-Fc (in house) (human, UniProt P01732 22-182, limits assumed); experiment: SPR (ProteOn), captured hCD8A-Fc
T2 construct: captured by goat anti-human Fc on the ProteOn chip; also called hCD8A-Fc; recombinant human CD8 alpha; not shown: linker/tag and Fc of human IgG1
T2 sequence (P01732 22-182 limits assumed): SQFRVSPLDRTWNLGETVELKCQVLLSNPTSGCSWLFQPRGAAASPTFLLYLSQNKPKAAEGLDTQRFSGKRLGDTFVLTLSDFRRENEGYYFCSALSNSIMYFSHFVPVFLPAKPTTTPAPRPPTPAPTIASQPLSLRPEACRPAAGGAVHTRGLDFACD

[2] = molecular target: T3, cynomolgus monkey CD8 alpha on primary cynomolgus CD8+ T cells (cynomolgus monkey, UniProt P01732 23-235 (human entry)); experiment: flow cytometry, cyno CD8+ T cells
T3 construct: also called Cyno CD8alpha; cyno CD8A
T3 sequence (P01732 other isoform, or with tags, fused parts or gaps limits assumed): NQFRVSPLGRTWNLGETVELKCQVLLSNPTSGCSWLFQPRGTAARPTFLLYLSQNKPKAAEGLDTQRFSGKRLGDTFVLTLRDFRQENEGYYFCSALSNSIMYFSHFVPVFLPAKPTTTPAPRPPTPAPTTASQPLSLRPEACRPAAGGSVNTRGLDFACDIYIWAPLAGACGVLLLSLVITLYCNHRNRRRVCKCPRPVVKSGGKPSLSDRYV
Experimental: as §1

T1 sequence (P01732 22-235): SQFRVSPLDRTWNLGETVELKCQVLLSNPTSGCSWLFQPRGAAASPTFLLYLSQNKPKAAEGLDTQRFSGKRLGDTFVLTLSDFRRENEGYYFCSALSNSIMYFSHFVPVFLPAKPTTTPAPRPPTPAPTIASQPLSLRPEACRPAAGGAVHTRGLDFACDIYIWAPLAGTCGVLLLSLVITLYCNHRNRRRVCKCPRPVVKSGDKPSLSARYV

Row | Binder | Human T-cell Binding 0.2 uM (MFI) [1] [MFI] | Human T-cell Binding 2 uM (MFI) [1] [MFI] | koff (human CD8A-Fc (in house)) [s⁻¹] | Cyno T-cell Binding 0.2 uM (MFI) [2] [MFI] | Cyno T-cell Binding 2 uM (MFI) [2] [MFI]
1 | P283FR9P1366_C6 (designed binder, FN3 domain) LPAPKNLVVSRVTEDSARLSWTAPDAAFDSFSIAYPEWPVYGEAIVLTVPGSERSYDLTGLKPGTEYFVVIYGVKGGNYSDPLSAIFTT | 483 | 4540 | 0.00143 | 1680 | 26200
2 | P283FR9P1366_F5 (designed binder, FN3 domain) LPAPKNLVVSRVTEDSARLSWTAPDAAFDSFDIGYPEWPIKGEAIVLTVPGSERSYDLTGLKPGTEYWVIIWGVKGGDRSEPLSAIFTT | 720 | 6880 | 0.00104 | 4700 | 46400
3 | P283FR9P1366_D12 (designed binder, FN3 domain) LPAPKNLVVSRVTEDSARLSWTAPDAAFDSFDIAYPEWPLGGEAIVLTVPGSERSYDLTGLKPGTEYWVIILGVKGGDQSWPLSAIFTT | 1530 | 27800 | 0.00176 | 8140 | 87600
4 | P283FR9P1366_G5 (designed binder, FN3 domain) LPAPKNLVVSRVTEDSARLSWTAPDAAFDSFQIAYPEYPALGEAIVLTVPGSERSYDLTGLKPGTEYFVIIIGVKGGDESFPLSAIFTT | 261 | 8450 | 0.000705 | 369 | 36400
5 | P283FR9P1366_D7 (designed binder, FN3 domain) LPAPKNLVVSRVTEDSARLSWTAPDAAFDSFSIAYPELPVKGEAIVLTVPGSERSYDLTGLKPGTEYFVVIWGVKGGTYSGPLSAIFTT | 566 | 7520 | 0.000354 | 2580 | 41400
6 | P283GR7P1367_A11 (designed binder, FN3 domain) LPAPKNLVVSRVTEDSARLSWTAPDAAFDSFDIAYPEWPTDGEAIVLTVPGSERSYDLTGLKPGTEYFVIIYGVKGGSYSEPLSAIFTT | 1030 | 11300 | 0.000635 | 5670 | 66700
7 | P283FR9P1366_G1 (designed binder, FN3 domain) LPAPKNLVVSRVTEDSARLSWTAPDAAFDSFYISYPELPVEGEAIVLTVPGSERSYDLTGLKPGTEYWVIIWGVKGGATSEPLSAIFTT | 650 | 3600 | 0.000872 | 4980 | 39800
8 | P283FR9P1366_D6 (designed binder, FN3 domain) LPAPKNLVVSRVTEDSARLSWTAPDAAFDSFNIFYPELVFPGEAIVLTVPGSERSYDLTGLKPGTEYWVNISGVKGGEHSWPLSAIFTT | 4550 | 32900 | 0.000509 | 10400 | 79600
9 | P283FR9P1366_D8 (designed binder, FN3 domain) LPAPKNLVVSRVTEDSARLSWTAPDAAFDSFEIAYPEIPIAGEAIVLTVPGSERSYDLTGLKPGTEYFVIIYGVKGGDWSDPLSAIFTT | 413 | 3390 | 0.00134 | 2300 | 28200
10 | P283FR9P1366_H10 (designed binder, FN3 domain) LPAPKNLVVSRVTEDSARLSWTAPDAAFDSFNIAYPEWPPEGEAIVLTVPGSERSYDLTGLKPGTEYFVVIYGVKGGHLSDPLSAIFTT | 2410 | 25000 | 0.00063 | 13900 | 75200
11 | P283FR9P1366_G8 (designed binder, FN3 domain) LPAPKNLVVSRVTEDSARLSWTAPDAAFDSFDIAYPELPIGGEAIVLTVPGSERSYDLTGLKPGTEYFVVIYGVKGGIHSAPLSAIFTT | 574 | 6860 | 0.00108 | 3130 | 37100
12 | P283FR9P1366_H9 (designed binder, FN3 domain) LPAPKNLVVSRVTEDSARLSWTAPDAAFDSFEIAYPEWPVNGEAIVLTVPGSERSYDLTGLKPGTEYWVVIWGVKGGVNSYPLSAIFTT | 693 | 8570 | 0.00198 | 2880 | 36500
13 | P283FR9P1366_H3 (designed binder, FN3 domain) LPAPKNLVVSRVTEDSARLSWTAPDAAFDSFAIAYPEWPIKGEAIVLTVPGSERSYDLTGLKPGTEYWVVIYGVKGGVFSEPLSAIFTT | 632 | 7670 | 0.00121 | 3170 | 40800
14 | P283FR9P1366_F9 (designed binder, FN3 domain) LPAPKNLVVSRVTEDSARLSWTAPDAAFDSFHIFYPELPIAGEAIVLTVPGSERSYDLTGLKPGTEYWVNISGVKGGYESWPLSAIFTT | 6300 | 33600 | 0.000494 | 24600 | 84300
15 | P283GR7P1367_B7 (designed binder, FN3 domain) LPAPKNLVVSRVTEDSARLSWTAPDAAFDSFDIAYPEWPTDGEAIVLTVPGSERSYDLTGLKPGTEYFVVIYGVKGGHWSYPLSAIFTT | 739 | 10900 | 0.00127 | 3130 | 37500
16 | P283FR9P1366_E11 (designed binder, FN3 domain) LPAPKNLVVSRVTEDSARLSWTAPDAAFDSFDIAYPEWPVPGEAIVLTVPGSERSYDLTGLKPGTEYWVIIKGVKGGNISWPLSAIFTT | 567 | 4590 | 0.00141 | 1470 | 14200
17 | P283FR9P1366_H8 (designed binder, FN3 domain) LPAPKNLVVSRVTEDSARLSWTAPDAAFDSFYISYPEWPGSGEAIVLTVPGSERSYDLTGLKPGTEYAVFIWCVKGGWLSDPLSAIFTT | 4540 | 24900 | 0.000175 | 17100 | 61300
18 | P283FR9P1366_F8 (designed binder, FN3 domain) LPAPKNLVVSRVTEDSARLSWTAPDAAFDSFAIAYPEIAKWGEAIVLTVPGSERSYDLTGLKPGTEYFVIIYGVKGGVHSFPLSAIFTT | 369 | 3970 | 0.00403 | 2270 | 27000
19 | P283FR9P1366_H6 (designed binder, FN3 domain) LPAPKNLVVSRVTEDSARLSWTAPDAAFDSFDIAYPEWPVTGEAIVLTVPGSERSYDLTGLKPGTEYWVIIFGVKGGERSWPLSAIFTT | 7130 | 43900 | 0.000205 | 19000 | 81500
20 | P283FR9P1366_H7 (designed binder, FN3 domain) LPAPKNLVVSRVTEDSARLSWTAPDAAFDSFQIAYPEYPALGEAIVLTVPGSERSYDLTGLKPGTEYFVIIAGVKGGIQSWPLSAIFTT | 567 | 13800 | 0.00177 | 1240 | 24400
